The nanobody polyreactivity screen of Harvey et al. (2022)

assay: yeast display, Sf9 membrane polyspecificity reagent, FACS + sequencing; frameworks hold sequencing errors
Summary of the method: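 Sorting gates, low and high (top ~1%), were placed on anti-HA fluorescence to track expression and on streptavidin fluorescence to track reagent binding. A clone's polyreactivity label is taken from the gate it came out of. The reagent was 10% biotinylated, detergent-solubilized Sf9 membrane, applied for 1 hour at 4 °C to galactose-induced yeast display cells.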

Which “polyreactivity (PSR sort gate)” value does the source give for “QVQLVESGGGLVQAGGSLRLSCAASGITFGFNAMGWYRQAPGKERELVAAITWSVGRTYYADSVKGRFTISRDNAKNTVYLQMNSLKPEDTAVYYCAKDFEAGDDYFAYDYWGQGTQVTVSS” here?
Its value is “low polyreactivity”.

For “QVQLVESGGGLVQAGGSLRLSCAASGITFGGNALGWYRQAPGTERELVAGIDDGGSTNYADSVKGRFTISRDNAKNTVYLQMNSLKPEDTAVYYCAVQGHPPLVILPGFLFDYWGQGTQVTVSS”, which “polyreactivity (PSR sort gate)” value is on record?
Its value is “low polyreactivity”.

With “QVQLVESGGGLVQAGGSLRLSCAASGITFGGNAMGWSRQAPGKERELVAAIDEGGGSTYYADSVKGRFTISRDNAKNTVYLQMNSLKPEDTAVYYCAADFVYYGYYYWGQGTQVTVSS” as the sequence, how does the “polyreactivity (PSR sort gate)” value read?
Its value is “low polyreactivity”.

For “QVQLVESGGGLVQAGGSLRLSCAASGITFGGNAMGWYRQAPGKERELVAAISRRGGSTYYADSVKGRFTISRDNAKNTVYLQMNSLKPEDTAVYYCAAYDPVNSPGYDYWGQGTQVTVSS”, which “polyreactivity (PSR sort gate)” value is on record?
Its value is “high polyreactivity”.

With “QVQLVESGGGLVQAGGSLRLSCAASGITFGIYAMGWDRQAPGKERELVAAISLSGGSTYYADSVKGRFTISRDNAKNTVYLQMNSVKPEDTAVYYCNARRNRYGEYYWGQGTQVTVSS” as the sequence, how does the “polyreactivity (PSR sort gate)” value read?
Its value is “high polyreactivity”.

For “QVQLVESGGGLVQAGGSLRLSCAASGITFGKNAMVWYRQAPGKEREFDAAISWGGGRTYYADSVKGRFTISRDNAKNTVYLQMNSLKPEDTAVYYCNVGPRAGWYRSNYDYWGQGTQVTVSS”, which “polyreactivity (PSR sort gate)” value is on record?
The value was “low polyreactivity”.

Which “polyreactivity (PSR sort gate)” value does the source give for “QVQLVESGGGLVQAGGSLRLSCAASGITFGNYAMGWYRQAPGKDRELVAAITGSGGRTYYADSVKGRFTISRDNAKNTVYLQMNSLKPEDTAVYYCNRRQYGRKKQYDYWGQGTQVTVSS” here?
Its value is “low polyreactivity”.

With “QVQLVESGGGLVQAGGSLRLSCAASGITFGNYAMGWYRQAPGKEREFVAAISQSYGRTYYADSVKGRFTISRDNAKNTVYLQMNSLKPEDTAVYYCAARTRGSSRGDYDYWGQGTQVTVSS” as the sequence, how does the “polyreactivity (PSR sort gate)” value read?
The value was “high polyreactivity”.

With “QVQLVESGGGLVQAGGSLRLSCAASGITFGPYAMGWYRQAPGKERELVATISSSGGSTYYADSVKGRFTISRDNAKNTVYLQMNSLIPEDTAVYYCNAGYAPYLGAYDYWGQGTQVTVSS” as the sequence, how does the “polyreactivity (PSR sort gate)” value read?
Its value is “low polyreactivity”.

For “QVQLVESGGGLVQAGGSLRLSCAASGITFGQNAMGWYRQAPGKEREYVATITASGSTYYADSVKGRFTISRDNAKNTVYLQMNSLKPEDTAVYYCATRYAGEYYWDYDYWGQGTQVTVSS”, which “polyreactivity (PSR sort gate)” value is on record?
Its value is “high polyreactivity”.

With “QVQLVESGGGLVQAGGSLRLSCAASGITFGRNAMGWSRQAPGKERELVAAISRGGSTNYADSVKGRFTISRDNAKNTVYLQMTRLKPEDTAVYYCATAYRGRAWGYDYWGQGTQVTVSS” as the sequence, how does the “polyreactivity (PSR sort gate)” value read?
Its value is “high polyreactivity”.

Which “polyreactivity (PSR sort gate)” value does the source give for “QVQLVESGGGLVQAGGSLRLSCAASGITFGRNTMGWSRQAPGKERELVAAIDSGANTYADSVKGRFTISSDNAKNTVYLQMISLKPEDSAVYYCAVDGGEFSSYGYWGQGTQVTVSW” here?
Its value is “low polyreactivity”.

For “QVQLVESGGGLVQAGGSLRLSCAASGITFGRNTMGWYRQAPGKERELVAAIDSGGNTYADSVKGRFTISRDNAKNTVYLQMNSLKPEDTAVYYCAVDGGEFSSYGYWGQGTEVTVSS”, which “polyreactivity (PSR sort gate)” value is on record?
The value was “low polyreactivity”.

For “QVQLVESGGGLVQAGGSLRLSCAASGITFGRYAMGWYRQAPGKERELVAAISSRTGRTYYADSVKGRFTISRDNAKNTVYLQMNSLKPEDTAVYYCARDSKLSASYDRDDSWGQGTQVTVSS”, which “polyreactivity (PSR sort gate)” value is on record?
The value was “high polyreactivity”.

For “QVQLVESGGGLVQAGGSLRLSCAASGITFGSNTMGLYRQAPGKERELVAVITWSGGSTYYADSVKGRFTISRDNAKNTVYLQMNSLIPEDTAVYDCAKPGEVNGQPPPQTESAYDYRGQGTQVTVSS”, which “polyreactivity (PSR sort gate)” value is on record?
The value was “low polyreactivity”.

For “QVQLVESGGGLVQAGGSLRLSCAASGITFGSYAMGWYRQAPGKERELVATISKSGGSTYYADSVKGRFTISRDNEKNTVYLQMNSLKPEDTAVYYCARRYVAKRMDFWGQGTQVTVSS”, which “polyreactivity (PSR sort gate)” value is on record?
The value was “high polyreactivity”.

With “QVQLVESGGGLVQAGGSLRLSCAASGITFGWYAMGLYRQAPGKERELVAAISTGSSTYYADSVKGRFTISRDNAKNTVYLQMNSLKPEDTAVYYCNAYPGPSGTLYVTPYDYWGQGTQVTVSS” as the sequence, how does the “polyreactivity (PSR sort gate)” value read?
The value was “high polyreactivity”.

Which “polyreactivity (PSR sort gate)” value does the source give for “QVQLVESGGGLVQAGGSLRLSCAASGITFGYNAMGWYRQAPGKDRELVAAITRSAGSTGYADSVKGRFTISRDNAKNTVYLQMNSLKPEDTAVYYCAAVRLSGSHRYGYWGQGTQVTVSS” here?
Its value is “high polyreactivity”.

Which “polyreactivity (PSR sort gate)” value does the source give for “QVQLVESGGGLVQAGGSLRLSCAASGITFGYYAMGLYRQAPGKERELVAAISWSGGRTYYADSVKGRLTISRDNAKNTVYLQMNSLKPEDTAVYYCATRYPVRRGSGPSYDYWGQGTQVTVSS” here?
Its value is “high polyreactivity”.

With “QVQLVESGGGLVQAGGSLRLSCAASGITFGYYAMGWSRQAAGKEWELVAAISSGGGTYYADSVKGRFTISRDNAKNTVYLQMNSLKPEDTAVYYCNVLRLYPSMDYWGHGTQVTVSS” as the sequence, how does the “polyreactivity (PSR sort gate)” value read?
Its value is “high polyreactivity”.

Which “polyreactivity (PSR sort gate)” value does the source give for “QVQLVESGGGLVQAGGSLRLSCAASGITFGYYAMGWYRQAPGKERELVAAISSGGRTYYADSVKGRFTIARDNAKNTVYLQMNSLKPEDTGVYYCAVVARHPSRMDYWGQGTQVTVSS” here?
Its value is “high polyreactivity”.

For “QVQLVESGGGLVQAGGSLRLSCAASGITFGYYAMGWYRQAPGKERELVAAITYSGGSTYYADSVKGRFTISRDNAKNTVYLQMNSLKPEDTAVYYCNADWWAYYSFGHEYWGQGTQVTVSS”, which “polyreactivity (PSR sort gate)” value is on record?
The value was “low polyreactivity”.

For “QVQLVESGGGLVQAGGSLRLSCAASGITFGYYAMGWYRQAPGKERELVASITSGGSTNYADSVKGRFTISRDNAKNTVYLQMNSLKPEDTAVYYCAKRYYRQYDYWGQGTQVTVSS”, which “polyreactivity (PSR sort gate)” value is on record?
The value was “low polyreactivity”.

With “QVQLVESGGGLVQAGGSLRLSCAASGITFGYYAMGWYRQAPGKERELVATITDGGGTKYADSVKGRFTISRDNAKNTVYLQMNSLKPEDTAVYYCAAGLRHVYATEYDYWGQGTQVTVSS” as the sequence, how does the “polyreactivity (PSR sort gate)” value read?
The value was “low polyreactivity”.

With “QVQLVESGGGLVQAGGSLRLSCAASGITFHPYALGWYRQAPGKERELVARIRSTGSTNYADSVKGRFTISRDNAKNTVYLQMNSLKPEDTAVYYCAATFRTGWRPYSFYYWGQGTQVTVSS” as the sequence, how does the “polyreactivity (PSR sort gate)” value read?
The value was “high polyreactivity”.

For “QVQLVESGGGLVQAGGSLRLSCAASGITFHRYAMGWYRQAPGKERELVAGINGRGGSTYYADSVKGRFTISRDNAKNTVYLQMNSLKPEDTAVYYCNAVYAGRYFGFDYWGQGTQVTVSS”, which “polyreactivity (PSR sort gate)” value is on record?
Its value is “high polyreactivity”.

With “QVQLVESGGGLVQAGGSLRLSCAASGITFHYNAMGWYRQAPGKERELVAAISGSGSNTYYADSVKGRFTISRDNAKNTVYLQMNSLKPEDTAVYYCAKYYYSSNKWMDYWGQGTQVTVSP” as the sequence, how does the “polyreactivity (PSR sort gate)” value read?
Its value is “high polyreactivity”.

With “QVQLVESGGGLVQAGGSLRLSCAASGITFIDYAMGGYRQAPGKVRELVAAITVRGSTYYADSVKGRFTISRDNAKNTVYLQMNSLKPEDTAVYYCAADTYVAADSPVTGERDSFDYWGQGTQVTVSS” as the sequence, how does the “polyreactivity (PSR sort gate)” value read?
Its value is “low polyreactivity”.

With “QVQLVESGGGLVQAGGSLRLSCAASGITFKRYAMGWYIQAPGKERELVAAISDIGGRTYYADSVKGRFTISRDNAKNTVYLQMNSLKPEDTEVYYCAADYYSPVDWYYYWGQGTQVTVSS” as the sequence, how does the “polyreactivity (PSR sort gate)” value read?
Its value is “high polyreactivity”.

Which “polyreactivity (PSR sort gate)” value does the source give for “QVQLVESGGGLVQAGGSLRLSCAASGITFKRYAMGWYRQAPGKERELVAAINGSGGRTYYADSVKGRFTISRDNAKNTVYLQMNSLKPEDTAVYYCNARHIYPSHYDYWGQGTQVTVSS” here?
Its value is “high polyreactivity”.

For “QVQLVESGGGLVQAGGSLRLSCAASGITFKRYAMGWYRQAPGKESELVATITWRDGSTYYADSVKGRFTISRDNAKNTVYLQMNSLKPEDTAVYYCAVAAYSRRSPYYHYNYWGQGTQVTVSS”, which “polyreactivity (PSR sort gate)” value is on record?
Its value is “high polyreactivity”.

Which “polyreactivity (PSR sort gate)” value does the source give for “QVQLVESGGGLVQAGGSLRLSCAASGITFKSNAMGWYRQAPGKERELVAAISRRASSTYYADSVKGRFTISRDNAKNTVYLQRNSLNPEDTAVYYCNAVLPVYRTNMDYWGQGTQVSVSS” here?
The value was “high polyreactivity”.

Which “polyreactivity (PSR sort gate)” value does the source give for “QVQLVESGGGLVQAGGSLRLSCAASGITFLDYAMGWYRQAPGQERELVAAISKRGGSTYYADSVKGRFTISRDKAKNTVYLQMNSLKPEDTAVYYCAAYYHSVRNDYFYYWGQGTQVTVSS” here?
The value was “high polyreactivity”.

For “QVQLVESGGGLVQAGGSLRLSCAASGITFLKYAMGWYRQATGKEREFVAAISRRGGSTYYADSVKGRFTISRDNAKNTVYLQMNSLKPEDTAVYYCAALTVRGTWSQNDYWGQGTQVTVSS”, which “polyreactivity (PSR sort gate)” value is on record?
Its value is “low polyreactivity”.

With “QVQLVESGGGLVQAGGSLRLSCAASGITFLQYAVGWYRPAPGKERELVAVISRGSRTYYADSVKGRFTISRDNAKNTVYLQMNSLKPEDTAVYYCAAVRGLAVGYDYWGQGTQVTVSS” as the sequence, how does the “polyreactivity (PSR sort gate)” value read?
The value was “high polyreactivity”.

For “QVQLVESGGGLVQAGGSLRLSCAASGITFLVNAMGWYRQAPGKERELVATITSGDSTSYADSVKGRFTISRDNAKNTVYLQMNSLKPEDTAVYFCAARPGYWAQYYPVGSRNYYWGQGTQVTVSS”, which “polyreactivity (PSR sort gate)” value is on record?
The value was “low polyreactivity”.

Which “polyreactivity (PSR sort gate)” value does the source give for “QVQLVESGGGLVQAGGSLRLSCAASGITFLVYVMGWYRQAPGKERELVAAISSGGSTYYADSVKGRFTISRDNAKNTVYLQMNSLKPEDTAVYYCSADTVGTNVVSPELDYWGQGTQVTVSS” here?
Its value is “low polyreactivity”.

With “QVQLVESGGGLVQAGGSLRLSCAASGITFNAYVMGWYRQAPGKERELVATISQSGGSTYYADSVKGRFTISRDNAKNTVYLQMNSLKPEDTADYYCAARKYGYSYTVTRYYWGQGTQVTVSS” as the sequence, how does the “polyreactivity (PSR sort gate)” value read?
The value was “high polyreactivity”.

With “QVQLVESGGGLVQAGGSLRLSCAASGITFNNNGMGWYRQAPGKERELVASIRSGGRTNYADSVKGRFTISRDNAKNTVYLQMNSLKPEDTAVYYCAAVWYTSRQKYDYWGQGTQVTVSS” as the sequence, how does the “polyreactivity (PSR sort gate)” value read?
Its value is “low polyreactivity”.

With “QVQLVESGGGLVQAGGSLRLSCAASGITFNPYVMGWYRQAPGKERELVAVITSGGSTNYADSVKGRFTISRDNAKITVYLEMNSLKPEDTAVYYCNVDRRPYYVWRVTYDYWGQGTQVTVSS” as the sequence, how does the “polyreactivity (PSR sort gate)” value read?
The value was “low polyreactivity”.

With “QVQLVESGGGLVQAGGSLRLSCAASGITFNQYAMGWYRQAPGKERELVARITKRGGSTYYADSVKGRFTISRDNAKNTVYLQMNSLKPEDTAVYYCAARTYYQEYDYWGQGTQVTVSS” as the sequence, how does the “polyreactivity (PSR sort gate)” value read?
The value was “high polyreactivity”.
